Tests used:
[1] = target: 牛IgG (牛 (bovine)); experiment: indirect ELISA, IgG coated at 1 ug/mL, HRP goat anti-mouse IgG detection, OD450; conditions: scale: reciprocal dilution
[2] = target: 山羊IgG (山羊 (goat)); experiment: as above; conditions: scale: reciprocal dilution
[3] = target: 绵羊IgG (绵羊 (sheep)); experiment: as above; conditions: scale: reciprocal dilution
[4] = target: 牛IgG (牛 (bovine)); experiment: direct magnetic-particle chemiluminescence, IgG on magnetic particles, HRP-labelled 4C-1 at 1:4000
[5] = target: 山羊IgG (山羊 (goat)); experiment: as above
[6] = target: 绵羊IgG (绵羊 (sheep)); experiment: as above

B1: 鼠单克隆抗体 二抗4C-1 (antibody, part only; not given: Light chain variable domain, V domains shown, part only)
VH: QVQLKQSGPELVKPGASVKMSCKASGYTFTSYVIHWVKQKPGQGLEWIGYINPYNDNTEYNEKFKGKATLTSDKSSSTAYMELSSLTSEDSAVYYCARREGGYYVFTYWGQGTLVTVSA
[1]
  效价 (titer): > 256000
[2]
  效价 (titer): > 256000
[3]
  效价 (titer): > 256000
[4]
  发光值 (luminescence value): > 100000 发光值
[5]
  发光值 (luminescence value): > 100000 发光值
[6]
  发光值 (luminescence value): > 100000 发光值
